The target of the assay is CHO derived N' FLAG-mNR6 (N-terminal FLAG-tagged murine NR6) (mouse) (UniProt Q9JM58). Nature of the assay: Biosensor (BiaCore) with M2 immobilised, after passage over M2 affinity resin. A general note: SPR reads the build-up and loss of mass on a sensor chip optically.
Sequence of UniProt Q9JM58 (Q9JM58 other isoform, or with tags, fused parts or gaps limits assumed): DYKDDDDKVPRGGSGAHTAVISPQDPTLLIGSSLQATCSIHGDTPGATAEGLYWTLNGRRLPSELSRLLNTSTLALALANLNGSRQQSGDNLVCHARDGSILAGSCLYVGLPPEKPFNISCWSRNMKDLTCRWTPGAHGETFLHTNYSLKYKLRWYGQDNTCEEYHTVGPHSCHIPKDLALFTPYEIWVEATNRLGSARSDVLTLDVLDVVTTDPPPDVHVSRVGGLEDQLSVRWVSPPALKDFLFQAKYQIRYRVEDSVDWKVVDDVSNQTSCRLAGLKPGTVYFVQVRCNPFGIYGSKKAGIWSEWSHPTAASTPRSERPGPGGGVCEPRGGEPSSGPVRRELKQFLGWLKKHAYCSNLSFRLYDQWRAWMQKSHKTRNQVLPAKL

“anti FLAG peptide M2 antibody (Kodak Eastman, USA)” displayed an M2 binding remaining in the unbound fraction of 20%.

The record behind these values is US20060294608A1.
